Source: patent US20210079074A1 (Alector, published 2021)
Where two headings read alike, the source gives them in different places.

B1: anti-MS4A4A antibody 4A-214 (antibody, V domains shown)
VH: EVKLEESGGGLVQPGRSMKLSCVASGFTFSNYWMNWVRQSPEKGLEWVAEIRLKSNNYATHYAESVKGRFTISRDDSKSSVYLQMNNLRAEDTGIYYCSSMIIVDYWGQGTTVTVSS
VL: DIVLTQSPASLTVSLGQRATISCRASQSVSSSTYSYLHWYQQRPGQPPKLLIKYASNLESGVPARFSGSGSGTVFTLNIHPVEEEDTATYYCQHSWEIPLTFGAGTKLEMK
notes: murine; mFc = murine Fc; also called 4A-214.mFc
B2: anti-MS4A4A antibody 4A-18 (antibody, V domains shown)
VH: QVQLQQPGTELVKPGASVKLSCKASGYTFTSYWIHWVKQRPGQGLEWIGNINPTNGGTNYNERFKSKATLTVDKSSSTAYMQLSSLTSEDSAVYYCARAYYYGSSLFAYWGQGTLVTVSS
VL: DIVMTQSQKFMSTTVGDRVSITCKASQNVGTAVAWSQQKPGQSPKLLIYSASYRHTGVPDRFTGSGSGTDFTLTITNMQSEDLADYFCQQYSTYPWTFGGGTKLEIK
notes: murine parental; tested as mouse IgG1 or as human IgG1 Fc chimera (hFc), told under assay; also called 4A-18.hFc
B3: anti-MS4A4A antibody 4A-25 (antibody, V domains shown)
VH: QVTLKESGPGILQPSQTLSLTCSFSGFSLRTSDMGVGWVRQPSGEGLEWLADIWWDDNKYYNPSLKSRLTISKDTSSNQVFLKITSVDTADTATYYCARRANYGNLFDYWGQGTAVTVSS
VL: DIVMTQSLKFMSTSVGDRVSITCKASQNVRSAVAWYQQKPGQSPKVLIYWASNRHTGVPDRFTGSGSGTDFTLTISNVQSEDLADYFCLQHWNYLTFGSGTKLEIK
notes: murine parental; mFc = murine Fc; also called 4A-25.mFc
B4: anti-MS4A4A antibody 4A-313 NSLF huIgG1 (antibody)
heavy: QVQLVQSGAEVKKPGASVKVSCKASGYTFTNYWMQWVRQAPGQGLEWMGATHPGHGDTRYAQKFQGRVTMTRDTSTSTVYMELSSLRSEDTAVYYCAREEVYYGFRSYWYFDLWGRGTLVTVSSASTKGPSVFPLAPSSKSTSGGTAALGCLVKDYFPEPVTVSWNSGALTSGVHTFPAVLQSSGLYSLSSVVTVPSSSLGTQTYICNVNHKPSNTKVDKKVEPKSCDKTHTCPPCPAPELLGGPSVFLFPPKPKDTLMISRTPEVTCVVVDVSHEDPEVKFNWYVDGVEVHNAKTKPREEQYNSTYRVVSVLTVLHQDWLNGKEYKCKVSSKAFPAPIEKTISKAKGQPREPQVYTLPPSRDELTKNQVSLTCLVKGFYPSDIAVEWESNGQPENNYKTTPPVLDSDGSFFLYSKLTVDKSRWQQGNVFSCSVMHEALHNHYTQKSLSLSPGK
light: EIVLTQSPATLSLSPGERATLSCRASESVDNYGVSRMNWYQQKPGQAPRLLIYGASNQGSGIPARFSGSGSGTDFTLTISSLEPEDFAVYYCQQSKEVPPTFGGGTKVEIKRTVAAPSVFIFPPSDEQLKSGTASVVCLLNNFYPREAKVQWKVDNALQSGNSQESVTEQDSKDSTYSLSSTLTLSKADYEKHKVYACEVTHQGLSSPVTKSFNRGEC
B5: anti-MS4A4A antibody 4A-450 NSLF huIgG1 (antibody, V domains shown)
VH: QVQLVQSGSELKKPGASVKVSCKASGYAFTSYGLSWVRQAPGQGLEWMGWINTYSGVPTYAQGFTGRFVFSLDTSVSTAYLQISSLKAEDTAVYYCARTMADYWGQGTLVTVSS
VL: DVVMTQSPLSLPVTLGQPASISCKSSRSLLYSAGKTYLSWFQQRPGQSPRRLIYLVSKLDSGVPDRFSGSGSGTDFTLKISRVEAEDVGVYYCWQGIDFHQTFGGGTKVEIKR
B6: anti-MS4A4A antibody 4A-202 (antibody, V domains shown)
VH: QVQLQQSGAELARPGASVKLSCKASGYTFTNYWMQWVKQRPGQGLEWIGATHPGHGDTRYTQKFKGKATLSADKSSSTAYMQLSNLASEDSAVYYCAREEVYYGFRSYWYFDVWGRGTLVTVSS
VL: not shown
notes: murine parental; tested as mouse IgG or as human IgG1 Fc chimera (hFc), told under assay

Legend:
[1] = biological target: T1, huMS4A4A-ECL2 free-peptide (human); assay: peptide ELISA, murine antibody
T1 construct: synthetic, free or BSA-conjugated, coated on the plate; also called human MS4A4A ECL2 peptide; huMS4A4A-ELC2 free-peptide
T1 peptide: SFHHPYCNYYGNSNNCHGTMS
Method: Coated plates were then blocked with ELISA diluent (PBS+0.5% BSA+0.05% Tween20) for 1-hour, washed 3×300 μL in PBST (PBS+0.05% Tween20, Thermo Cat#28352), and then the antibodies were added to the plate ([…]). After 30 mins incubation (room temperature, with shaking), the plates were washed 3×300 μL in PBST. […] After a final set of washes (3×300 μL in PBST), 50 μL of TMB substrate (BioFx Cat#TMBW-1000-01) was added and the reaction was then quenched after 5-10 mins with 50 μL of stop solution (BioFx Cat#BSTP-1000-01). The quenched reaction wells were detected for absorbance at […] with a BioTek Synergy Microplate Reader using GENS 2.04 software.

[2] = biological target: T2, recombinant MS4A4A soluble polypeptide JS1; assay: ELISA, biotin-antigen on streptavidin plate
T2 construct: also called JS1.His; loop grafted antigen
Method: (§1) Anti-MS4A4A antibodies of the present disclosure were tested for their ability to bind to the different recombinant MS4A4A soluble polypeptides, as described in Example 2, as follows. Nucleic acid encoding the VH and VL domains of humanized anti-MS4A4A antibodies of the present disclosure were cloned into pcDNA3.4 vector which contains either the human IgG1 heavy chain constant domain or human kappa constant domain. The humanized anti-MS4A4A antibodies were expressed in Expi293 cells and were purified by Mab select antibody purification resin (GE Healthcare Life Science, cat#17519902) following the manufacture's protocol. ELISA was performed to measure binding of anti-MS4A4A antibodies of the present disclosure the recombinant MS4A4A soluble polypeptides. 1 μg/ml biotinylated antigens were preincubated on the streptavidin-coated ELISA plates (Thermo Scientific, cat#PI15120) for 1 hour. Plates were washed 3 times, followed by the addition of antibodies (1 μg/ml, 0.33 μg/ml, and 0.11 μg/ml antibodies. Plates were incubated at room temperature with shaking for 1 hr, washed 3 times, then 1/2500 dilution of HRP conjugates goat anti human kappa antibodies added (SigmaAldrich cat#. A7164-1ML).

[3] = biological target: T3, negative control polypeptide JS4; assay: ELISA, biotin-antigen on streptavidin plate
T3 construct: negative control for JS1; also called JS4.His
Method: as §1

[4] = biological target: T4, recombinant MS4A4A soluble polypeptide JS5; assay: ELISA, biotin-antigen on streptavidin plate
T4 construct: also called JS5.His
Method: as §1

[5] = biological target: T5, recombinant MS4A4A soluble polypeptide JS6; assay: ELISA, biotin-antigen on streptavidin plate
T5 construct: also called JS6.His
Method: as §1

[6] = biological target: T6, negative control polypeptide JS10; assay: ELISA, biotin-antigen on streptavidin plate
T6 construct: negative control for JS5 and JS6; also called JS10.His
Method: as §1

[7] = biological target: T7, human MS4A4A (human, UniProt Q96JQ5 1-239); assay: FACS, U937-huMS4A4A, 5 ug/ml
Method: (§2) Anti-MS4A4A antibodies tested were either mouse IgGs purified from hybridoma supernatant or human IgG1 Fc chimeras produced recombinantly in Expi293 cells. Affinity binding to cells was determined as follows. Briefly, cells were harvested, washed, and labeled with Aqua Live/Dead for viability discrimination. After a wash with PBS, 2×10\hat{ }4 cells were aliquoted per well in 96-well U-bottom plates and incubated with 50 μL of purified anti-MS4A4A antibody at various concentrations (3× dilutions starting at 10 μg/mL) in FACS buffer (PBS+2% FBS+1 mM EDTA). After this primary incubation, the supernatant was removed via centrifugation, washed 2× with 150 μL of ice-cold FACS buffer, and incubated with the appropriate secondary antibody on ice for 15 minutes. Following the secondary antibody incubation, the cells were again washed 2× with ice-cold FACS buffer and resuspended in a final volume of 200 μL of FACS buffer. Flow cytometry analysis was performed on a FACSCanto system (BD Biosciences). Binding data was expressed as Median Fluorescent Intensity (MFI).
(§3) These experiments were performed using anti-MS4A4A antibodies at a concentration of 5 μg/ml and were assayed for cell binding by flow cytometry.

[8] = biological target: T8, FcγRIIa receptor (H131 variant) (UniProt P12318 34-317, limits assumed); assay: cell-based or functional assay
T8 sequence (looked up): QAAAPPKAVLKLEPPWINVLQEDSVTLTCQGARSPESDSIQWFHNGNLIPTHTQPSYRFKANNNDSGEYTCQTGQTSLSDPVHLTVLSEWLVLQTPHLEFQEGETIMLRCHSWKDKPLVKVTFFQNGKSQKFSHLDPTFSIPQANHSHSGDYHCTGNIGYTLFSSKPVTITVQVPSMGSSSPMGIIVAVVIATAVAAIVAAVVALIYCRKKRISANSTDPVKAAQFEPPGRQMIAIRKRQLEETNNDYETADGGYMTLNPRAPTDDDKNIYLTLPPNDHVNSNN

[9] = biological target: FcγRIIIa receptor (V158 variant) (UniProt P08637 17-254); assay: cell-based or functional assay
[10] = biological target: T7, human MS4A4A; assay: cell-based or functional assay
[11] = biological target: T7, human MS4A4A; assay: cell-based or functional assay; remark: listed apart in the source
[12] = biological target: T2, recombinant MS4A4A soluble polypeptide …; assay: ELISA, 1 ug/ml antibody
Summary of the method: (§4)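 Read-out is HRP-conjugated goat anti-human kappa (1/2500) bound to humanized anti-MS4A4A IgG1 captured by biotinylated antigen (1 μg/ml) immobilized on streptavidin plates. Antibodies, tested at 1, 0.33 and 0.11 μg/ml, were incubated 1 hr at room temperature with shaking.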

[13] = biological target: T4, recombinant MS4A4A soluble polypeptide …; assay: ELISA, 1 ug/ml antibody
Summary of the method: as §4

[14] = biological target: T4, recombinant MS4A4A soluble polypeptide …; assay: ELISA, 0.11 ug/ml antibody
Method: as §1

[15] = biological target: T4, recombinant MS4A4A soluble polypeptide …; assay: ELISA, 0.33 ug/ml antibody
Method: as §1

[16] = biological target: T7, human MS4A4A; assay: FACS, U937-huMS4A4A, 5 ug/ml; remark: listed apart in the source
Method: as §2, §3

Chain of FcγRIIIa receptor (V158 variant) (P08637 other isoform, or with tags, fused parts or gaps mutant limits assumed): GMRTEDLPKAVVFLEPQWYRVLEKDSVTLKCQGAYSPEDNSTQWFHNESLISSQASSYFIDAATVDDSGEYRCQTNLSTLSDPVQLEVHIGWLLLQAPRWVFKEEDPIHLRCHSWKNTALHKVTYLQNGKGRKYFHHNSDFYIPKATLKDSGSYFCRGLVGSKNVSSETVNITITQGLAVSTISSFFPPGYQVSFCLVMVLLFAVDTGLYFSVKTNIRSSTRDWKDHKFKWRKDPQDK

Binder	binding result [1]	ELISA OD [2]	ELISA OD [3]	ELISA OD [4]	ELISA OD [5]	ELISA OD [6]	MFI [7]	EC50 of the increase of mTREM2, primary human macrophages [10]	EC50 of the increase of sTREM2, primary human macrophages [11]	further results
B1	binds	1.74	0.11	1.62	1.71	0.086				
B2		0.146	0.098	0.099	0.105	0.092	382			
B3	binds	1.38	0.091	1.12	1.26	0.063	648			
B4								0.028 µg/mL	0.025 µg/mL	luminescence, ADCP reporter, 3.048316 ng/mL [8]: 42; luminescence, ADCP reporter, 9.144947 ng/mL [8]: 45; luminescence, ADCP reporter, 27.43484 ng/mL [8]: 39; luminescence, ADCP reporter, 82.30453 ng/mL [8]: 58; luminescence, ADCP reporter, 246.9136 ng/mL [8]: 51; luminescence, ADCP reporter, 740.7407 ng/mL [8]: 61; luminescence, ADCP reporter, 2,222.222 ng/mL [8]: 55; luminescence, ADCP reporter, 6,666.667 ng/mL [8]: 227; luminescence, ADCP reporter, 20,000 ng/mL [8]: 250; luminescence, ADCC reporter, 3.048316 ng/mL [9]: 324; luminescence, ADCC reporter, 9.144947 ng/mL [9]: 356; luminescence, ADCC reporter, 27.43484 ng/mL [9]: 347; luminescence, ADCC reporter, 82.30453 ng/mL [9]: 360; luminescence, ADCC reporter, 246.9136 ng/mL [9]: 332; luminescence, ADCC reporter, 740.7407 ng/mL [9]: 363; luminescence, ADCC reporter, 2,222.222 ng/mL [9]: 431; luminescence, ADCC reporter, 6,666.667 ng/mL [9]: 415; luminescence, ADCC reporter, 20,000 ng/mL [9]: 442
B5								0.039 µg/mL	0.069 µg/mL	
B6	binds	1.16	0.111	1.22	1.23	0.084	216			OD450 [12]: 0.141; ELISA OD [13]: 0.188; ELISA OD [14]: 0.079; ELISA OD [15]: 0.111; MFI [16]: 31700
